Results: patent publication US20200270339A1 (CEPHALON, published 2020)
“And” between values parts separate entries of the source, which are not always exact repeats. Equal entries are not always repeated.

T1: uncomplexed IL-15 Receptor α (human)
T1 construct: also called IL-15Rα; IL15Rα
T1 chain: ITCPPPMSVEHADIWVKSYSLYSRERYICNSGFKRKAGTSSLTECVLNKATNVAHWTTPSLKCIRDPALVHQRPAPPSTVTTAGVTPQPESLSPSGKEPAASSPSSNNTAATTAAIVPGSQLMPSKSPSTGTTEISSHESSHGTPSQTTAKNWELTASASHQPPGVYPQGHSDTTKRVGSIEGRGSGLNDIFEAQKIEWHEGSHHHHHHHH

T2: IL-7 (UniProt P13232 26-177)
T2 sequence (looked up): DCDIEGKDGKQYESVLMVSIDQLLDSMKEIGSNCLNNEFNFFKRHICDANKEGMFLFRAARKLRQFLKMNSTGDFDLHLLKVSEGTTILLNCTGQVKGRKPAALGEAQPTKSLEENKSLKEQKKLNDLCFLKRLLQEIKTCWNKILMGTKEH

T3: IL-4 (UniProt P05112 25-153)
T3 sequence (looked up): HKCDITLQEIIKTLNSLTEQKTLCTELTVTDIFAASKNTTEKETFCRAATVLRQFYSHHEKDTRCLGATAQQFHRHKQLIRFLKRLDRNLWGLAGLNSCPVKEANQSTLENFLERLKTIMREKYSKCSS


Columns and labels:
[1] = target: T4, human IL-15 complexed with the IL-15 Receptor-alpha (human, UniProt P40933 49-162); experiment: SPR, run 6
T4 construct: Co-expressed in HEK293F from plasmids in a 1:1 ratio; also called IL-15/IL-15Rα complex
Target sequence in this assay (P40933 49-162 limits assumed, one chain of several): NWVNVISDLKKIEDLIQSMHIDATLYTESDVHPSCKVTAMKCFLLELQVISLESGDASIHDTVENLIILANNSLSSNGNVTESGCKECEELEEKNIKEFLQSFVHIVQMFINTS

[2] = target: T4, human IL-15 complexed with the IL-15 …; experiment: SPR, antibody captured on Protein A chip, IL-15 complex as analyte
Procedure: Binding of Antibody 70 variants to human IL-15 complexed with the IL-15 Receptor-alpha were assessed using surface plasmon resonance on a BIACORE® T200 (GE Healthcare) system using a Protein A Sensor Chip (GE Healthcare). Antibodies were captured onto the second flow cell to a level of 150-200 RU. Purified cytokines were diluted to 10 μg/mL in HBS-EP+. Binding was measured by injection of […] of each cytokine at a flow rate of […] across both flow cells and allowing 180 s of dissociation time. The chip surface was regenerated between cycles with two 10 sec pulses of 50 mM sodium hydroxide. The running buffer used was HBS-EP+ (GE Healthcare) and all interactions were measured at 25° C. and data collection rate set to 10 Hz.
A summary of the surface plasmon resonance data is shown on FIG. 36. The affinity can be measured by the KD (the equilibrium dissociation constant between the antibody and its antigen). […] The large difference in KD between variants of Antibody 70 and AMG714 is driven by the dissociation rate (kd). IL-15 dissociates from AMG714 ten times faster than the rate of dissociation of IL-15 from Antibody 70 variants. […] This was tested in a cell based potency assay.
Target sequence in this assay (P40933 49-162 limits assumed, one chain of several): as above

[3] = target: T4, human IL-15 complexed with the IL-15 …; experiment: cell-based or functional assay
Target sequence in this assay (P40933 49-162 limits assumed, one chain of several): as above

[4] = target: T4, human IL-15 complexed with the IL-15 …; experiment: SPR, run 2
Target sequence in this assay (P40933 49-162 limits assumed, one chain of several): as above

[5] = target: T4, human IL-15 complexed with the IL-15 …; experiment: SPR
Target sequence in this assay (P40933 49-162 limits assumed, one chain of several): as above

[6] = target: T4, human IL-15 complexed with the IL-15 …; experiment: cell-based or functional assay; remark: listed apart in the source
[7] = target: T4, human IL-15 complexed with the IL-15 …; experiment: SPR, run 5
Target sequence in this assay (P40933 49-162 limits assumed, one chain of several): as above

[8] = target: T1, uncomplexed IL-15 Receptor α; experiment: ELISA and cELISA, hybridoma supernatant
Procedure: Microtiter plates were coated with purified IL-15 or purified IL-15Rα or purified IL-15 complex. Briefly, microtiter plates were coated with purified protein in PBS and then blocked with irrelevant proteins such as bovine serum albumin (BSA) diluted in PBS. Dilutions of hybridoma supernatants were added to each well and incubated for 1-2 hours at 37° C. The plates were washed with PBS/TWEEN® 20, and then incubated with a goat-anti-human IgG Fc-specific polyclonal reagent conjugated to a suitable detection reagent […] for 1 hour at 37° C. […] Hybridomas that produced antibodies showing positive reactivity with the IL-15 complex but not with IL-15Rα were selected for further characterization.
cELISA was carried out as follows. HEK cells were transfected with DNA encoding IL-15 and IL-15Rα such that they expressed the IL-15 complex. The transfected HEK cells were coated onto an ELISA plate and dilutions of hybridoma supernatants was applied to the plate so that it could bind to the IL-15 complex expressed on the surface of the cells. The assay was repeated using HEK cells transfected with IL-15Rα such that they expressed uncomplexed IL-15Rα. The advantage of using cELISA in addition to classical ELISA is that a native protein complex is used to screen the antibodies.

[9] = target: T4, human IL-15 complexed with the IL-15 …; experiment: SPR, run 4
[10] = target: T4, human IL-15 complexed with the IL-15 …; experiment: cell-based or functional assay; remark: listed apart in the source
[11] = target: T2, IL-7; experiment: SPR, antibody captured on Protein A chip
[12] = target: IL-2 (UniProt P60568 21-153); experiment: SPR, antibody captured on Protein A chip
[13] = target: T3, IL-4; experiment: SPR, antibody captured on Protein A chip
[14] = target: IL-9 (UniProt P15248 19-144); experiment: SPR, antibody captured on Protein A chip
[15] = target: IL-21 (UniProt Q9HBE4 30-162, limits assumed); experiment: SPR, antibody captured on Protein A chip
[16] = target: T1, uncomplexed IL-15 Receptor α; experiment: SPR, antibody captured on Protein A chip
[17] = target: T5, IL-15 Q101A co-expressed with IL-15Rα (human, UniProt P40933 49-162); experiment: SPR
T5 construct: Purified alanine scan construct, expressed in EXPI293F cells with human IL-15Rα
Procedure: (§1) All interactions were measured at 25° C. and the data collection rate was set to 10 Hz. Data from FC2-1 was used for analysis. The resultant sensorgrams were analysed by creating two custom report points, each calculated for a 5 s window starting either 10 s after injection of the sample (‘early binding’) or 10 s before the end of dissociation (‘late binding’). These values were subtracted from the values for the untransfected control and a relative dissociation rate was estimated by first, taking a ratio of these two custom report points (‘late binding’/‘early binding’) and then, taking the resultant values as a fraction of the value calculated for wild-type human IL-15 complexed with the IL-15 Receptor-alpha (data not shown).
(§2) A Protein A Sensor Chip (GE Healthcare) was used to capture Antibody 70a onto the second flow cell to a capture level of 150-200 RU. Purified IL-15 alanine scan constructs were diluted to 10 μg/mL in HBS-EP+ and then a 2-fold dilution series was made. Binding was measured by injection of 45 μL of each dilution at a flow rate of 30 μL/min across both flow cells and allowing 600 s of dissociation time. The chip surface was regenerated between cycles with a 10 sec pulse of 50 mM sodium hydroxide. The running buffer used was HBS-EP+ (GE Healthcare) All interactions were measured at 25° C. and the data collection rate was set to 10 Hz. Data from Fc2-1 was used for analysis and generated sensorgrams were fitted using a 1:1 Langmuir equation (using local Rmax fitting) to determine KD. […] Antibody 70a had low binding to mutated IL-15 with a Q108A substitution.

[18] = target: T6, IL-15 E98A co-expressed with IL-15Rα (human, UniProt P40933 49-162); experiment: SPR
T6 construct: Purified alanine scan construct, expressed in EXPI293F cells with human IL-15Rα
Procedure: as §1, §2

[19] = target: T7, IL-15 H105A co-expressed with IL-15Rα (human, UniProt P40933 49-162); experiment: SPR
T7 construct: Purified alanine scan construct, expressed in EXPI293F cells with human IL-15Rα
Procedure: as §1, §2

[20] = target: T4, human IL-15 complexed with the IL-15 …; experiment: subsequent studies, method not restated; subsequent studies; average; analyte form and method not restated

Sequence of IL-21 (Q9HBE4 30-162 limits assumed): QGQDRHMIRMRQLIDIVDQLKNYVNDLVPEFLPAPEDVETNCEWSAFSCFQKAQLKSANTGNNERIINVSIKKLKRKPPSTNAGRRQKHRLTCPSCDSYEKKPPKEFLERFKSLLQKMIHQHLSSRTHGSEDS
Sequence of IL-2 (P60568 21-153 limits assumed): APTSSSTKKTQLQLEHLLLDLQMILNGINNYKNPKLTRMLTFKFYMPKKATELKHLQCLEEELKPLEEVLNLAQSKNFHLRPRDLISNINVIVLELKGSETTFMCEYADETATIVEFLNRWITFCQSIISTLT
Sequence of IL-9 (P15248 19-144 limits assumed): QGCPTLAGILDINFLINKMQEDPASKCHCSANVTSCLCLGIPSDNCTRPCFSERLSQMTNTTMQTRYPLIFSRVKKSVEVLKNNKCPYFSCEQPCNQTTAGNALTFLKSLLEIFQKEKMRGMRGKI
T7 sequence (P40933 49-162 H153A limits assumed): as the sequence (P40933 49-162 limits assumed, one chain of several) above, with H105A counted along it
T6 sequence (P40933 49-162 E146A limits assumed): as the sequence (P40933 49-162 limits assumed, one chain of several) above, with E98A counted along it
T5 sequence (P40933 49-162 Q149A limits assumed): as the sequence (P40933 49-162 limits assumed, one chain of several) above, with Q101A counted along it

Binder | Kd [5] | koff [5] | kon [5] | IC 50 (NK-92) in pM [6] [pM] | Max IC50 (pM), NK-92 proliferation assay [10] [pM] | Mean IC50 (pM), NK-92 proliferation assay [10] [pM] | Min IC50 (pM), NK-92 proliferation assay [10] [pM] | binding result [11] | binding result [12] | binding result [13] | binding result [14] | binding result [15] | binding result [16] | further results
Antibody 4 (antibody, V domains shown, not shown: a dimerising Fc or GST, from section 3.4 on as recombinant human IgG1 lambda; also called parent antibody; parental antibody) VH: QVQLQESGPGLVKPSGTLSLTCAVSGGSISSSNWWSWVRQPPGKGLEWIGEIYHSGNTNYNPSLKSRVTISVDKSKNQFSLKLISVTAADTAVYYCAREGIGWPSFDYWGQGTLVTVSS VL: SSELTQDPAASVALGQTVRITCQGDTLRNYYASWYQQKPGQAPILVIYGKNNRPSGIPDRFSGSSSGNTASLTITGAQAEDEADYYCNSRDSSGKNLVFGGGTKLTVLG | 0.63 nM and 0.628 nM | 9.43e-05 s⁻¹ and 9.31e-05 s⁻¹ | 148000 M⁻¹ s⁻¹ and 150000 M⁻¹ s⁻¹ | 148 |  |  |  |  |  |  |  |  |  | Kd [1]: 1.07 nM; koff [1]: 0.00016 s⁻¹; kon [1]: 150000 M⁻¹ s⁻¹; Kd [2]: 0.629 nM; IC50, NK-92 proliferation assay [3]: 0.1 nM; Kd [4]: 0.982 nM; koff [4]: 0.000138 s⁻¹; kon [4]: 141000 M⁻¹ s⁻¹; Kd [7]: 0.979 nM; koff [7]: 0.000166 s⁻¹; kon [7]: 170000 M⁻¹ s⁻¹; binding result [8]: no binding; Kd [9]: 1.28 nM; koff [9]: 0.000182 s⁻¹; kon [9]: 142000 M⁻¹ s⁻¹
Antibody 70a (antibody, human IgG1, lambda, Heavy S54Y + N56Y + I82aS, light N30S + S93L) heavy: not shown light: SSELTQDPAASVALGQTVRITCQGDTLRSYYASWYQQKPGQAPILVIYGKNNRPSGIPDRFSGSSSGNTASLTITGAQAEDEADYYCNSRDLSGKNLVFGGGTKLTVLGQPKAAPSVTLFPPSSEELQANKATLVCLISDFYPGAVTVAWKADSSPVKAGVETTTPSKQSNNKYAASSYLSLTPEQWKSHRSYSCQVTHEGSTVEKTVAPTECS | 0.133 nM and 0.149 nM | 3.47e-05 s⁻¹ and 3.75e-05 s⁻¹ | 252000 M⁻¹ s⁻¹ and 261000 M⁻¹ s⁻¹ | 18.2 | 22 | 14.7 | 10.2 | no binding (tested: 10 µg/mL) | no binding (tested: 10 µg/mL) | no binding (tested: 10 µg/mL) | no binding (tested: 10 µg/mL) | no binding (tested: 10 µg/mL) | no binding (tested: 10 µg/mL) | binding result [17]: binds; binding result [18]: binds; binding result [19]: binds
Antibody 70f (antibody, human IgG4 S228P, lambda) heavy: QVQLQESGPGLVKPSGTLSLTCAVSGGSISSSNWWSWVRQPPGKGLEWIGEIYHYGYTNYNPSLKSRVTISVDKSKNQFSLKLSSVTAADTAVYYCAREGIGWPSFDYWGQGTLVTVSSASTKGPSVFPLAPCSRSTSESTAALGCLVKDYFPEPVTVSWNSGALTSGVHTFPAVLQSSGLYSLSSVVTVPSSSLGTKTYTCNVDHKPSNTKVDKRVESKYGPPCPPCPAPEFLGGPSVFLFPPKPKDTLYITREPEVTCVVVDVSQEDPEVQFNWYVDGVEVHNAKTKPREEQFNSTYRVVSVLTVLHQDWLNGKEYKCKVSNKGLPSSIEKTISKAKGQPREPQVYTLPPSQEEMTKNQVSLTCLVKGFYPSDIAVEWESNGQPENNYKTTPPVLDSDGSFFLYSRLTVDKSRWQEGNVFSCSVMHEALHNHYTQKSLSLSLG light: SSELTQDPAASVALGQTVRITCQGDTLRSYYASWYQQKPGQAPILVIYGKNNRPSGIPDRFSGSSSGNTASLTITGAQAEDEADYYCNSRDLSGKNLVFGGGTKLTVLGQPKAAPSVTLFPPSSEELQANKATLVCLISDFYPGAVTVAWKADSSPVKAGVETTTPSKQSNNKYAASSYLSLTPEQWKSHRSYSCQVTHEGSTVEKTVAPTECS | 0.171 nM and 0.173 nM | 4.44e-05 s⁻¹ and 4.32e-05 s⁻¹ | 249000 M⁻¹ s⁻¹ and 260000 M⁻¹ s⁻¹ |  | 29.8 | 14.6 | 7.3 | no binding (tested: 10 µg/mL) | no binding (tested: 10 µg/mL) | no binding (tested: 10 µg/mL) | no binding (tested: 10 µg/mL) | no binding (tested: 10 µg/mL) | no binding (tested: 10 µg/mL) | Kd [20]: 0.43 nM
